B1: HDV Ribozyme (parent)
chain: GGCCGGCAUGGUCCCAGCCUCCUCGCUGGCGCCGGCUGGGCAACAUUCCGAGGGGACCGUCCCCUCGGUAAUGGCGAAUGGGACCCA

Variants of: B1
Assay: self-cleavage, relative activity (ratio to wild type); higher = more cleavage; co-transcriptional

Q: Which self-cleavage does the source give for A43U G53C here?
A: 0.508

Q: Which self-cleavage does the source give for A43U G54A here?
A: 0.487

Q: Which self-cleavage does the source give for A43U G55A here?
A: 0.537

Q: With A43U G55C as the variant, how does the self-cleavage read?
A: 0.399

Q: For A43U G59U, which self-cleavage is on record?
A: 0.783

Q: With A43U G73A as the variant, how does the self-cleavage read?
A: 0.322

Q: Which self-cleavage does the source give for A43U G73C here?
A: 0.43

Q: For A43U G74C, which self-cleavage is on record?
A: 0.125

Q: With A43U G76A as the variant, how does the self-cleavage read?
A: 0.554

Q: Which self-cleavage does the source give for A43U G81C here?
A: 0.181

Q: For A43U G82A, which self-cleavage is on record?
A: 0.0811

Q: Which self-cleavage does the source give for A43U U47G here?
A: 0.361

Q: For A43U U60A, which self-cleavage is on record?
A: 0.594

Q: Which self-cleavage does the source give for A43U U79C here?
A: 0.127

Q: With C44A A45C as the variant, how does the self-cleavage read?
A: 0.692

Q: Which self-cleavage does the source give for C44A A56U here?
A: 0.614

Q: For C44A A71C, which self-cleavage is on record?
A: 0.332

Q: With C44A A83G as the variant, how does the self-cleavage read?
A: 0.443

Q: For C44A A87U, which self-cleavage is on record?
A: 0.686

Q: With C44A C58A as the variant, how does the self-cleavage read?
A: 1.01

Q: Which self-cleavage does the source give for C44A C64U here?
A: 0.665

Q: Which self-cleavage does the source give for C44A C75A here?
A: 0.359

Q: With C44A C75U as the variant, how does the self-cleavage read?
A: 0.218

Q: With C44A C84U as the variant, how does the self-cleavage read?
A: 0.431

Q: For C44A C85G, which self-cleavage is on record?
A: 0.629

Q: Which self-cleavage does the source give for C44A G50C here?
A: 0.702

Q: Which self-cleavage does the source give for C44A G53C here?
A: 0.686

Q: With C44A G55C as the variant, how does the self-cleavage read?
A: 0.831

Q: Which self-cleavage does the source give for C44A G59A here?
A: 0.762

Q: With C44A G59C as the variant, how does the self-cleavage read?
A: 0.796

Q: Which self-cleavage does the source give for C44A G74U here?
A: 0.702

Q: For C44A G76A, which self-cleavage is on record?
A: 0.873

Q: With C44A U69G as the variant, how does the self-cleavage read?
A: 0.609

Q: With C44A U72G as the variant, how does the self-cleavage read?
A: 0.431

Q: Which self-cleavage does the source give for C44G A45C here?
A: 0.578

Q: With C44G A56U as the variant, how does the self-cleavage read?
A: 0.734

Q: Which self-cleavage does the source give for C44G A71G here?
A: 0.646

Q: With C44G A83G as the variant, how does the self-cleavage read?
A: 0.233

Q: For C44G A87U, which self-cleavage is on record?
A: 0.675

Q: With C44G C48G as the variant, how does the self-cleavage read?
A: 0.575

Q: Which self-cleavage does the source give for C44G C58U here?
A: 0.751

Q: With C44G C61A as the variant, how does the self-cleavage read?
A: 0.724

Q: Which self-cleavage does the source give for C44G C61U here?
A: 0.378

Q: Which self-cleavage does the source give for C44G C62A here?
A: 0.875

Q: For C44G C64A, which self-cleavage is on record?
A: 0.745

Q: Which self-cleavage does the source give for C44G C66U here?
A: 0.694

Q: Which self-cleavage does the source give for C44G C75A here?
A: 0.406

Q: With C44G C86U as the variant, how does the self-cleavage read?
A: 0.897

Q: For C44G G50C, which self-cleavage is on record?
A: 0.739

Q: With C44G G50U as the variant, how does the self-cleavage read?
A: 0.767

Q: With C44G G53A as the variant, how does the self-cleavage read?
A: 0.665

Q: With C44G G54A as the variant, how does the self-cleavage read?
A: 0.831

Q: For C44G G54C, which self-cleavage is on record?
A: 0.831

Q: For C44G G73U, which self-cleavage is on record?
A: 0.397

Q: With C44G G74C as the variant, how does the self-cleavage read?
A: 0.185

Q: Which self-cleavage does the source give for C44G G80A here?
A: 0.223

Q: Which self-cleavage does the source give for C44G G82U here?
A: 0.232

Q: With C44G U69A as the variant, how does the self-cleavage read?
A: 0.657

Q: For C44G U69C, which self-cleavage is on record?
A: 0.776

Q: With C44G U72C as the variant, how does the self-cleavage read?
A: 0.198

Q: With C44G U79G as the variant, how does the self-cleavage read?
A: 0.196

Q: With C44U A45G as the variant, how does the self-cleavage read?
A: 0.739

Q: With C44U A56C as the variant, how does the self-cleavage read?
A: 1.04

Q: For C44U A56G, which self-cleavage is on record?
A: 0.939

Q: Which self-cleavage does the source give for C44U A70G here?
A: 0.793

Q: Which self-cleavage does the source give for C44U A70U here?
A: 0.955

Q: With C44U A77C as the variant, how does the self-cleavage read?
A: 0.277

Q: For C44U A78G, which self-cleavage is on record?
A: 0.242

Q: With C44U A83C as the variant, how does the self-cleavage read?
A: 0.314

Q: With C44U A87G as the variant, how does the self-cleavage read?
A: 0.554

Q: For C44U C48U, which self-cleavage is on record?
A: 0.898

Q: With C44U C58G as the variant, how does the self-cleavage read?
A: 0.712

Q: For C44U C61A, which self-cleavage is on record?
A: 0.751

Q: With C44U C61U as the variant, how does the self-cleavage read?
A: 0.716

Q: Which self-cleavage does the source give for C44U C62G here?
A: 0.464

Q: For C44U C64G, which self-cleavage is on record?
A: 0.862

Q: Which self-cleavage does the source give for C44U C75A here?
A: 0.108

Q: Which self-cleavage does the source give for C44U C84A here?
A: 0.614

Q: Which self-cleavage does the source give for C44U C85A here?
A: 0.814

Q: For C44U C85U, which self-cleavage is on record?
A: 0.954

Q: For C44U C86G, which self-cleavage is on record?
A: 0.928

Q: For C44U G52U, which self-cleavage is on record?
A: 0.82

Q: With C44U G53A as the variant, how does the self-cleavage read?
A: 0.709

Q: With C44U G55U as the variant, how does the self-cleavage read?
A: 0.831

Q: With C44U G59A as the variant, how does the self-cleavage read?
A: 0.819

Q: Which self-cleavage does the source give for C44U G59U here?
A: 0.854

Q: Which self-cleavage does the source give for C44U G67U here?
A: 0.499

Q: With C44U G82A as the variant, how does the self-cleavage read?
A: 0.363

Q: For C44U G82U, which self-cleavage is on record?
A: 0.282

Q: Which self-cleavage does the source give for C44U U46A here?
A: 0.767

Q: For C44U U47C, which self-cleavage is on record?
A: 0.54

Q: Which self-cleavage does the source give for C44U U47G here?
A: 0.677

Q: With C44U U60A as the variant, how does the self-cleavage read?
A: 0.594

Q: With C44U U65G as the variant, how does the self-cleavage read?
A: 0.812

Q: For C44U U72A, which self-cleavage is on record?
A: 0.678

Q: Which self-cleavage does the source give for A45C A51G here?
A: 0.587

Q: For A45C A56G, which self-cleavage is on record?
A: 0.615

Q: Which self-cleavage does the source give for A45C A71C here?
A: 0.831

Q: With A45C A78C as the variant, how does the self-cleavage read?
A: 0.135

Q: With A45C A83G as the variant, how does the self-cleavage read?
A: 0.23

Q: With A45C A87C as the variant, how does the self-cleavage read?
A: 0.554

Q: With A45C C48A as the variant, how does the self-cleavage read?
A: 0.779

Q: Which self-cleavage does the source give for A45C C48U here?
A: 0.642

Q: With A45C C49A as the variant, how does the self-cleavage read?
A: 0.72

Q: For A45C C57G, which self-cleavage is on record?
A: 0.851

Q: For A45C C61A, which self-cleavage is on record?
A: 0.671

Q: With A45C C61U as the variant, how does the self-cleavage read?
A: 0.796

Q: With A45C C62A as the variant, how does the self-cleavage read?
A: 0.584

Q: Which self-cleavage does the source give for A45C C62G here?
A: 0.391

Q: For A45C C63A, which self-cleavage is on record?
A: 0.748

Q: With A45C C63G as the variant, how does the self-cleavage read?
A: 0.427

Q: With A45C C63U as the variant, how does the self-cleavage read?
A: 0.727

Q: With A45C C66G as the variant, how does the self-cleavage read?
A: 0.587

Q: Which self-cleavage does the source give for A45C C86U here?
A: 0.779

Q: With A45C G53C as the variant, how does the self-cleavage read?
A: 0.755

Q: With A45C G54A as the variant, how does the self-cleavage read?
A: 0.597

Q: For A45C G55A, which self-cleavage is on record?
A: 0.554

Q: Which self-cleavage does the source give for A45C G55U here?
A: 0.525

Q: For A45C G59U, which self-cleavage is on record?
A: 0.507

Q: With A45C G67A as the variant, how does the self-cleavage read?
A: 0.719

Q: Which self-cleavage does the source give for A45C G80A here?
A: 0.187

Q: With A45C G80U as the variant, how does the self-cleavage read?
A: 0.0678

Q: With A45C G81C as the variant, how does the self-cleavage read?
A: 0.0489

Q: Which self-cleavage does the source give for A45C G82A here?
A: 0.208

Q: Which self-cleavage does the source give for A45C U47G here?
A: 0.95

Q: Which self-cleavage does the source give for A45C U65G here?
A: 0.745

Q: With A45C U69A as the variant, how does the self-cleavage read?
A: 0.987

Q: Which self-cleavage does the source give for A45C U79A here?
A: 0.208

Q: For A45G A51G, which self-cleavage is on record?
A: 0.612

Q: For A45G A56G, which self-cleavage is on record?
A: 0.997

Q: Which self-cleavage does the source give for A45G A71C here?
A: 1.01

Q: With A45G A71G as the variant, how does the self-cleavage read?
A: 0.831

Q: For A45G A77U, which self-cleavage is on record?
A: 0.482

Q: Which self-cleavage does the source give for A45G A78U here?
A: 0.225

Q: With A45G A83C as the variant, how does the self-cleavage read?
A: 0.482

Q: For A45G C48A, which self-cleavage is on record?
A: 1.27

Q: For A45G C57A, which self-cleavage is on record?
A: 0.979

Q: With A45G C62U as the variant, how does the self-cleavage read?
A: 1.03

Q: For A45G C63A, which self-cleavage is on record?
A: 0.872

Q: With A45G C64A as the variant, how does the self-cleavage read?
A: 0.658

Q: Which self-cleavage does the source give for A45G C85A here?
A: 1.01

Q: Which self-cleavage does the source give for A45G C85G here?
A: 0.88

Q: For A45G G50C, which self-cleavage is on record?
A: 0.989

Q: With A45G G50U as the variant, how does the self-cleavage read?
A: 1.16

Q: Which self-cleavage does the source give for A45G G52U here?
A: 0.731

Q: Which self-cleavage does the source give for A45G G54A here?
A: 0.814

Q: Which self-cleavage does the source give for A45G G67A here?
A: 0.678

Q: Which self-cleavage does the source give for A45G G67U here?
A: 0.933

Q: With A45G G68A as the variant, how does the self-cleavage read?
A: 0.867

Q: For A45G G68U, which self-cleavage is on record?
A: 0.804

Q: With A45G G73A as the variant, how does the self-cleavage read?
A: 0.966

Q: With A45G G80C as the variant, how does the self-cleavage read?
A: 0.415

Q: With A45G G81C as the variant, how does the self-cleavage read?
A: 0.147

Q: With A45G G81U as the variant, how does the self-cleavage read?
A: 0.208

Q: With A45G U46A as the variant, how does the self-cleavage read?
A: 0.806

Q: For A45G U46C, which self-cleavage is on record?
A: 0.511

Q: Which self-cleavage does the source give for A45G U47C here?
A: 0.787

Q: For A45G U60A, which self-cleavage is on record?
A: 0.866

Q: With A45G U65A as the variant, how does the self-cleavage read?
A: 0.767

Q: Which self-cleavage does the source give for A45G U65G here?
A: 0.782

Q: For A45G U69A, which self-cleavage is on record?
A: 0.895

Q: With A45G U72A as the variant, how does the self-cleavage read?
A: 0.604

Q: With A45G U72C as the variant, how does the self-cleavage read?
A: 0.87

Q: With A45G U79G as the variant, how does the self-cleavage read?
A: 0.317

Q: For A45U A51U, which self-cleavage is on record?
A: 0.767

Q: For A45U A56C, which self-cleavage is on record?
A: 0.806

Q: Which self-cleavage does the source give for A45U A70G here?
A: 0.808

— the RNAGym collection of RNA variant scans (doi:10.7554/elife.80360)
